Biological target: SEV-9 peptide (Sendai virus nucleoprotein 324-332) (Sendai virus)

B1: soluble H-2K^b (K^bsol), empty heterodimer of truncated K^b heavy chain and murine β-2 microglobulin (other)
alpha: GPHSLRYFVTAVSRPGLGEPRYMEVGYVDDTEFVRFDSDAENPRYEPRARWMEQEGPEYWERETQKAKGNEQSFRVDLRTLLGYYNQSKGGSHTIQVISGCEVGSDGRLLRGYQQYAYDGCDYIALNEDLKTWTAADMAALITKHKWEQAGEAERLRAYLEGTCVEWLRRYLKNGNATLLRTDSPKAHVTHHSRPEDKVTLRCWALGFYPADITLTWQLNGEELIQDMELVETRPAGDGTFQKWASVVVPLGKEQYYTCHVYHQGLPEPLTLRW
beta: IQKTPQIQVYSRHPPENGKPNILNCYVTQFHPPHIEIQMLKNGKKIPKVEMSDMSFSKDWSFYILAHTEFTPTETDTYACRVKHASMAEPKTVYWDRDM
Binder B1 has a Kd of 2.7 nM.

— patent publication US6461867
